From patent publication US20170226560

System: T1, peptide substrate SEQ ID NO: 1 Lys-Lys-Gly-Phe-Pro-Arg-Gly-Gly-Asp-Cys
T1 sequence: KKGFPRGGDC

For trypsin, the “limit of detection of trypsin (750 nM peptide, 60 min pre-exposure, 20 nm gold nanoparticles)” value was “the limit of detection of the colloidal gold nanoparticle-based colorimetric assay developed in the present invention for sensing trypsin is about 20 pM of trypsin”, the “limit of detection of trypsin (750 nM peptide, 3 hours pre-exposure, 20 nm gold nanoparticles)” value was “from 20 pM to approximately 2 to 10 pM” and the “limit of detection of trypsin (750 nM peptide, 3 hours pre-exposure, 30 nm gold nanoparticles)” value was “further improved from about 2 to 10 pM to a range of from 500 fM to 2 pM”. The “ratio of the absorbance at 650 nm/absorbance at 520 nm (750 nM peptide, 60 min pre-exposure, trypsin up to 2 nM)” value was “As the amount of trypsin is increased the absorbance band shifts toward what the gold nanoparticles show in the absence of any peptide and the ratio approaches a value of about 0.05” and the “time for complete hydrolytic cleavage (gold nanoparticle aggregation, ratio of absorbance at 650 nm to 520 nm; 1000 nM peptide, 200 pM trypsin, 20 C)” value was “it took more than 60 min for complete hydrolytic cleavage of a solution of 1000 nM of the peptide substrate SEQ ID NO: 1 Lys-Lys-Gly-Phe-Pro-Arg-Gly-Gly-Asp-Cys by trypsin at a concentration of 200 pM”.
